# Laboratory results published in patent US11760795B2, “Monoclonal antibodies to growth and differentiation factor 15 (GDF-15), and uses thereof for treating cancer cachexia and cancer” (JULIUS-MAXIMILIANS-UNIVERSITÄT WÜRZBURG, priority 2014, dated 2023).
# Where a chain is given by its changes, count along the chain named.
# B1: mAb-B1-23: murine IgG2a (kappa) monoclonal anti-human GDF-15 antibody produced by hybridoma cell line B1-23, DSM ACC3142 (antibody, V domains shown)
# VH: QVKLQQSGPGILQSSQTLSLTCSFSGFSLSTSGMGVSWIRQPSGKGLEWLAHIYWDDDKRYNPTLKSRLTISKDPSRNQVFLKITSVDTADTATYYCARSSYGAMDYWGQGTSVTVSS
# VL: DIVLTQSPKFMSTSVGDRVSVTCKASQNVGTNVAWFLQKPGQSPKALIYSASYRYSGVPDRFTGSGSGTDFTLTISNVQSEDLAEYFCQQYNNFPYTFGGGTKLEIKRTVA
# Tests used:
# [1] = target: T1, recombinant mature human GDF-15 protein (Homo sapiens, UniProt Q99988); assay: Surface plasmon resonance binding to immobilized recombinant mature human GDF-15 (insect cell derived); settings: GDF-15 derived from insect cell expression; 25° C.; 1:1 Langmuir-type interaction
# T1 construct: made in house; host or cells: Baculovirus-transfected HighFive insect cells
# T1 sequence (Q99988 with tags, fused parts or gaps): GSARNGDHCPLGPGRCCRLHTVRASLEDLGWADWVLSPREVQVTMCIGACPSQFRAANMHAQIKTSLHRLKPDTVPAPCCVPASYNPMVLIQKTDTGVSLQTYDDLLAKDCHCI
# Experimental: Binding of monoclonal anti-human-GDF-15 antibodies according to the invention is generally assessed by employing surface plasmon resonance measurements using a Bio-Rad® ProteOn™ XPR36 system and Bio-Rad® GLC sensor chips as described for murine anti-human GDF-15 mAb-B1-23 in Example 1.
# Binding of the monoclonal anti-human-GDF-15 antibody anti-human GDF-15 mAb-B1-23 was measured by employing surface plasmon resonance measurements using a Bio-Rad® ProteOn™ XPR36 system and Bio-Rad® GLC sensor chips:
# For preparing the biosensors recombinant mature human GDF-15 protein was immobilized on flow cells 1 and 2. On one flow cell recombinant GDF-15 derived from Baculvirus-transfected insect cells (HighFive insect cells) and on the other recombinant protein derived from expression in E. coli was used. […] The resulting sensogram was analyzed using the software ProteOn Manager version 3.0. […] For the association rate constant a value of 5.4±0.06×10^5 M^−1s^−1 (kon) and for the dissociation rate constant a value of 4.3±0.03×10^−4 s^−1 (koff) could be determined (values are for the interaction of anti-human GDF-15 mAb-B1-23 with GDF-15 derived from insect cell expression).
# [2] = system: cancer cells; assay: Cytotoxic effects of the antibody (different assays); type: cell-based
# Description: The strongest antiproliferative effect was observed using the prostate cancer cell line LnCap, which produces lots of GDF-15.
# [3] = target: T2, human GDF-15 precursor on human cells (Homo sapiens, UniProt Q99988); assay: Staining experiments on human cells; type: cell-based
# T2 construct: endogenous in cells
# T2 sequence (Q99988 30-308 limits assumed): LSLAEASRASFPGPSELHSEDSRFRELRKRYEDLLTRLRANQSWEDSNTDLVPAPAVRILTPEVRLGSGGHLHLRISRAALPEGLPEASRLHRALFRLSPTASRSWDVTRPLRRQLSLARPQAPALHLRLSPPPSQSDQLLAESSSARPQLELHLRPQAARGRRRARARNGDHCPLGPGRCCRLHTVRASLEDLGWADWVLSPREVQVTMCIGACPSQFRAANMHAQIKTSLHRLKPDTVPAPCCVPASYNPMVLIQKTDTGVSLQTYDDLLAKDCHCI
# [4] = Aggregation study: shaking 48 hours at room temperature, visual analysis for precipitates; type: physicochemical; settings: PBS, no stabilizing proteins for H1L5
# Experimental: In order to test the aggregation properties of anti-GDF-15 antibodies, antibody samples were shaken for 48 hours at room temperature in microcentrifuge tubes, and subsequently, the tubes were visually analyzed for aggregated antibody precipitates.
# [5] = system: 13 mer linear peptides derived from GDF-15; assay: Epitope mapping on peptide array of 13 mer linear peptides derived from GDF-15; type: binding, human; settings: antibody dilution 1:100, overnight at 4° C.
# Experimental: Epitope Mapping: Monoclonal mouse antibody GDF-15 against 13 mer linear peptides derived from GDF-15
# The protein sequence was translated into 13 mer peptides with a shift of one amino acid. The C- and N-termini were elongated by a neutral GSGS linker to avoid truncated peptides (bold letters).
# Primary sample: Monoclonal mouse antibody GDF-15 (1 μg/μl):
# Staining in incubation buffer for 16 h at 4° C. at a dilution of 1:100 and slight shaking at 500 rpm
# Secondary antibody: Goat anti-mouse IgG (H+L) IRDye680, staining in incubation buffer with a dilution of 1:5000 for 30 min at room temperature (RT)
# After pre-swelling for 10 min in standard buffer, the peptide microarray was incubated overnight at 4° C. with monoclonal mouse antibody GDF-15 at a dilution of 1:100. Repeated washing in standard buffer (2×1 min) was followed by incubation for 30 min with the secondary antibody at a dilution of 1:5000 at room temperature. After 2×10 sec. washing in standard buffer and short rinsing with dist. water, the PEPperCHIP® was dried in a stream of air. Read-out was done with Odyssey® Imaging System at a resolution of 21 μm and green/red intensities of 7/7 before and after staining of control peptides by anti-HA and anti-FLAG(M2) antibodies.
# [6] = target: T3, recombinant mature human GDF-15 protein derived from expression in E. coli (Homo sapiens, UniProt Q99988); assay: Surface plasmon resonance binding to recombinant GDF-15 derived from E. coli expression; settings: SPR
# T3 construct: recombinant mature human GDF-15 protein was immobilized on flow cells 1 and 2; made in house; host or cells: E. coli
# T3 sequence (Q99988 195-308): T1 sequence (Q99988 with tags, fused parts or gaps) with G1A, S2R
# Description: For preparing the biosensors recombinant mature human GDF-15 protein was immobilized on flow cells 1 and 2. On one flow cell recombinant GDF-15 derived from Baculvirus-transfected insect cells (HighFive insect cells) and on the other recombinant protein derived from expression in E. coli was used. The GLC sensor chip was activated using Sulfo-NHS (N-Hydroxysulfosuccinimide) and EDC (1-Ethyl-3-[3-dimethylaminopropyl]carbodiimide hydrochloride) (Bio-Rad® ProteOn™ Amine Coupling Kit) according to the manufacturer's recommendation, the sensor surface was subsequently loaded with the proteins up to a density of about 600RU (1Ru=1 pg mm^−2). The non-reacted coupling groups were then quenched by perfusion with 1M ethanolamine pH 8.5 and the biosensor was equilibrated by perfusing the chip with running buffer ([…], 150 mM NaCl, 3.4 mM EDTA, 0.005% Tween® 20, pH 7.4, referred to as HBS150). […] The resulting sensogram was analyzed using the software ProteOn Manager version 3.0. […] For the association rate constant a value of 5.4±0.06×10^5 M^−1s^−1 (kon) and for the dissociation rate constant a value of 4.3±0.03×10^−4 s^−1 (koff) could be determined (values are for the interaction of anti-human GDF-15 mAb-B1-23 with GDF-15 derived from insect cell expression).
molecule,measurement,setting,value
B1,association rate constant (kon),[1],5.4±0.06×10^5 M^−1s^−1
same,dissociation rate constant (koff),[1],4.3±0.03×10^−4 s^−1
same,cytotoxic effects of the antibody,[2],excluded
same,binding to the human GDF-15 precursor on human cells,[3],capable of binding
same,tendency to aggregate,[4],can form aggregates
same,interaction with linear 13 mer peptides derived from GDF-15,[5],none of the linear 13 mer peptides derived from GDF-15 interacted
same,"deviation of rate constants, GDF-15 from insect cells vs E. coli",[6],about 45%
